Reference: patent US20060233785A1, “Immunointeractive molecules and uses thereof” (priority 2001, published 2006)
Changes are numbered by the printed parent chain. Each block holds one molecule with its values, some of them ahead of it.

Key:
[1] = tested on: IgE binding to rHev b 5; assay: Non-specific inhibition assay: IgE binding to rHev b 5; design: species or system human; conditions: serum of latex-allergic, Hev b 5 positive subject (data not shown)
Protocol: (§1) To confirm the lack of IgE reactivity of mutant rHev b 6, inhibition ELISA were performed. In these assays, IgE binding to rHev b 6 was inhibited by preincubation of sera from latex allergic, Hev b 6 reactive subjects with either rHev b 6 or mutant rHev b 6 over a range of concentrations. To determine the level of non-specific inhibition inherent in such an assay, an initial non-specific inhibition assay was performed. The serum of a latex-allergic, Hev b 5 positive subject was incubated with rHev b 6 and mutant rHev b 6 and then the ability of IgE from this serum to bind rHev b 5 in an ELISA was measured. When this assay was undertaken, binding of IgE to rHev b5 was inhibited at a maximum of 20% by rHev b 6 and mutant rHev b 6 (data not shown).

[2] = tested on: Hev b 6-specific mAb 1A5.4; assay: Inhibition ELISA: mAb 1A5.4 binding to rHev b 6; design: species or system mouse; conditions: FIG. 8A
Protocol: (§2) Inhibition ELISA were carried out to confirm the lack of IgE reactivity of mutant rHev b 6. Various concentrations of mutant rHev b 6 and rHev b 6, ranging from 0.0016 μg/ml to 125 μg/ml were preincubated with patient sera before the sera were used in ELISA to measure IgE binding to rHev b 6. Incubation of sera with KLH was used as a negative control. Values are presented as percent inhibition±standard deviation. (A) The Hev b 6-specific mAb 1A5.4 was incubated with KLH, mutant rHev b 6 and rHev b 6 and mAb binding to rHev b 6 detected. Sera from three latex-allergic, Hev b 6 sensitised subjects A7 (B), A6 (C) and A8 (D) were incubated with KLH, mutant rHev b 6 and rHev b 6 and IgE binding to rHev b 6 detected. The horizontal line indicates the level below which inhibition was considered to non-specific.
In order to confirm the ability of the mutant rHev b 6 to inhibit Ab binding, rHev b 6 and mutant rHev b 6 were used to inhibit binding of the Hev b 6-specific mAb 1A5.4 to rHev b 6 (FIG. 8A).

[3] = assay type: physicochemical
Source text: Recombinant Hev b 6 (rHev b 6): The cDNA encoding Hev b 6 was cloned from latex RNA (Beezhold, unpublished). The deduced amino acid sequence of this clone is identical to that of the Hev b 6 clone pDHPROH 6 in Rozynek P et al., 1998, Clinical and Experimental Allergy 28:1418-1426 and differed at amino acid 126 (Thr versus Ala) from the deduced amino acid sequence of the Hev b 6 clone pDHPROH 1-2 (Genbank entry AJ003196.1). It differs at amino acids 109 (Pro versus Ser) and 161 (Leu versus Ile) from the deduced amino acid sequence of the Hev b 6 clone HEV1 (Genbank entry M36986.1), isolated by Broekaert W, Lee H, Kush A, Chua N-H, Raikhel N. Wound-induced accumulation of mRNA containing a hevein sequence in laticifers of rubber tree (Hevea brasiliensis). Proc Natl Acad Sci USA 1990; 87:7633-7637. The Hev b 6 cDNA was subcloned into the pPROEX-Hta vector (Invitrogen, CA, USA) by the polymerase chain reaction (PCR) following our standardised methods (Sutherland et al., 2002, supra). Primers HEVB6F (5′-[…]-3′) (SEQ ID NO:22) and HEVB6R (5′-[…]-3′) (SEQ ID NO:23) were used for the PCR. The plasmid construct was transformed into E. coli strain BL21-CodonPlus® (DE3)-RIL competent cells (Stratagene, CA, USA) by the heat shock procedure (Sambruk et al., 1989, supra). […]

[4] = tested on: IgE binding to rHev b 6; assay: Inhibition ELISA: IgE binding to rHev b 6; design: species or system human; conditions: for inhibitor concentration required to give 30% inhibition of IgE binding: estimated; for maximum inhibition of IgE binding to rHev b 6: third subject (FIG. 8D), 125 μg/ml inhibitor
Protocol: as §2, §1

maximum inhibition of IgE binding to rHev b5 (non-specific) [1]: 20%
inhibition of mAb 1A5.4 binding to rHev b 6 [2]: comparable inhibition
inhibitor concentration required to give 30% inhibition of IgE binding [4]: 0.01 µg/mL
inhibition of IgE binding to rHev b 6 ([4]; higher inhibitor concentrations, FIGS. 8B, C and D): 100%
maximum inhibition of IgE binding to rHev b 6 [4]: 100%
B1: rHev b 6: recombinant Hev b 6 (prohevein) expressed in E. coli from pPROEX-HTa with 6-His tag (protein)
chain: EQCGRQAGGKLCPNNLCCSQWGWCGSTDEYCSPDHNCQSNCKDSGEGVGGGSASNVLATYHLYNSQDHGWDLNAASAYCSTWDANKPYSWRSKYGWTAFCGPVGAHGQSSCGKCLSVTNTGTGAKTTVRIVDQCSNGGLDLDVNVFRQLDTDGKGYERGHITVNYQFVDCGDSFNPLFSVMKSSVIN
modifications: left off: small tags and cut ends
notes: recombinant Hev b 6 (prohevein) expressed in E. coli from pPROEX-HTa with 6-His tag
solubility [3]: insoluble

B2: sulphonated rHev b 6: purified rHev b 6 sulphonated in sulphonation buffer to improve solubility (protein)
chain: B1 chain
modifications: left off: small tags and cut ends
solubility [3]: increased markedly

maximum inhibition of IgE binding to rHev b5 (non-specific) [1]: 20%
inhibition of mAb 1A5.4 binding to rHev b 6 [2]: comparable inhibition
fold more inhibitor required to inhibit IgE binding as effectively as rHev b 6 ([4]; at 30% inhibition): 12,500 fold
inhibitor concentration required to give 30% inhibition of IgE binding [4]: 125 µg/mL
maximum inhibition of IgE binding to rHev b 6 [4]: 32%
B3: mutant rHev b 6: rHev b 6 with cysteine to alanine substitution at amino acid 3 of the mature protein (protein)
chain: B1 chain with C3A
modifications: left off: small tags and cut ends
notes: rHev b 6 with cysteine to alanine substitution at amino acid 3 of the mature protein
inhibition of IgE binding to rHev b 6 ([4]; two subjects (FIGS. 8B and C), 0.0016 to 125 μg/ml): failed to inhibit above the level determined for non-specific inhibition
